Eight molecules from patent publication US20210322524A1 (CASE WESTERN RESERVE UNIVERSITY, published 2021) can be followed below.

B1: Myc-tagged ATAD3A (other, human, UniProt Q9NVI7 1-586, looked up)
chain: MSWLFGINKGPKGEGAGPPPPLPPAQPGAEGGGDRGLGDRPAPKDKWSNFDPTGLERAAKAARELEHSRYAKDALNLAQMQEQTLQLEQQSKLKEYEAAVEQLKSEQIRAQAEERRKTLSEETRQHQARAQYQDKLARQRYEDQLKQQQLLNEENLRKQEESVQKQEAMRRATVEREMELRHKNEMLRVEAEARARAKAERENADIIREQIRLKAAEHRQTVLESIRTAGTLFGEGFRAFVTDWDKVTATVAGLTLLAVGVYSAKNATLVAGRFIEARLGKPSLVRETSRITVLEALRHPIQVSRRLLSRPQDALEGVVLSPSLEARVRDIAIATRNTKKNRSLYRNILMYGPPGTGKTLFAKKLALHSGMDYAIMTGGDVAPMGREGVTAMHKLFDWANTSRRGLLLFVDEADAFLRKRATEKISEDLRATLNAFLYRTGQHSNKFMLVLASNQPEQFDWAINDRINEMVHFDLPGQEERERLVRMYFDKYVLKPATEGKQRLKLAQFDYGRKCSEVARLTEGMSGREIAQLAVSWQATAYASEDGVLTEAMMDTRVQDAVQQHQQKMCWLKAEGPGRGDEPSPS
notes: also called Myc-ATAD3A; ATAD3A-WT (heterodimer partner); not shown: Myc tag (pCMV-Myc vector)
B2: ATAD3A-Flag protein (human ATAD3A wildtype, Flag-tagged) (other, UniProt Q9NVI7 1-586, looked up)
chain: B1 chain
notes: Made cell-free (TNT system) from pcDNA3.1(+)-ATAD3A-Flag for the in vitro assays, or expressed in HEK293 cells; the same construct is used for both here; also called ATAD3A WT; flag-tagged ATAD3A; not shown: Flag tag
B3: ATAD3A K135Q (Flag-tagged) (other, human, UniProt Q9NVI7 1-586, looked up)
chain: B1 chain with K135Q
notes: Expressed in HEK293 cells; also called K135Q mutant; acetyl-mimetic ATAD3A K135Q mutant; not shown: Flag tag
B4: ATAD3A K135R (Flag-tagged) (other, human, UniProt Q9NVI7 1-586, looked up)
chain: B1 chain with K135R
notes: Expressed in HEK293 cells; also called K135R mutant; acetyl-deficient mutant K135R; not shown: Flag tag
B5: ATAD3A K135E (Flag-tagged) (other, human, UniProt Q9NVI7 1-586, looked up)
chain: B1 chain with K135E
notes: Expressed in HEK293 cells; also called K135E mutant; acetyl-deficient mutant K135E; not shown: Flag tag
B6: ATAD3A (endogenous, mouse cells and mouse striatum) (other, UniProt Q925I1 2-591, looked up)
chain: SWLFGIKGPKGEGTGPPLPLPPAQPGAEGGGDRGAGDRPSPKDKWSNFDPTGLERAAKAARELEHSRHAKEALSLAQMQEQTLQLEQQSKLKEYEAAVEQLKSEQIRVQAEERRKTLTEETRQHQARAQYQDKLARQRYEDQLKQQQLLNEENLRKQEESVQKQEAIRRATVEREMELRHKNEMLRVEAEARARAKADRENADIIREQIRLKAAEHRQTILESIRTAGTLLGEGFRAFVTDWDKVTATVAGLTLLAVGVYSAKNATSVAGRYIEARLGKPSLVRETSRISVLEALRHPIQVSRRLVSRPQDALEGVILSPSLEARVRDIAIATRNTKKNKSLYRNVLMYGPPGTGKTLFAKKLALHSGMDYAIMTGGDVAPMGREGVTAMHKVFDWASTSRRGLLLFVDEADAFLRKRATEKISEDLRATLNAFLHRTGQHSSKFMLVLASNQPEQFDWAINDRIDEMVCFALPQREERERLVRMYFDKYVLKPATEGKQRLKVAQFDYGKKCSEVAQLTEGMSGREIAQLAVAWQAMAYSSEDGVLTEAMMDARVQDAVQQHQQKMQWLKVERPDSQTNKPPHPSLLSC
notes: Endogenous protein in lysates; also called endogenous ATAD3A
B7: ATAD3A (endogenous, human cells and tissue) (other, UniProt Q9NVI7 2-586, looked up)
chain: SWLFGINKGPKGEGAGPPPPLPPAQPGAEGGGDRGLGDRPAPKDKWSNFDPTGLERAAKAARELEHSRYAKDALNLAQMQEQTLQLEQQSKLKEYEAAVEQLKSEQIRAQAEERRKTLSEETRQHQARAQYQDKLARQRYEDQLKQQQLLNEENLRKQEESVQKQEAMRRATVEREMELRHKNEMLRVEAEARARAKAERENADIIREQIRLKAAEHRQTVLESIRTAGTLFGEGFRAFVTDWDKVTATVAGLTLLAVGVYSAKNATLVAGRFIEARLGKPSLVRETSRITVLEALRHPIQVSRRLLSRPQDALEGVVLSPSLEARVRDIAIATRNTKKNRSLYRNILMYGPPGTGKTLFAKKLALHSGMDYAIMTGGDVAPMGREGVTAMHKLFDWANTSRRGLLLFVDEADAFLRKRATEKISEDLRATLNAFLYRTGQHSNKFMLVLASNQPEQFDWAINDRINEMVHFDLPGQEERERLVRMYFDKYVLKPATEGKQRLKLAQFDYGRKCSEVARLTEGMSGREIAQLAVSWQATAYASEDGVLTEAMMDTRVQDAVQQHQQKMCWLKAEGPGRGDEPSPS
notes: Endogenous protein in lysates

Numbering of substitutions follows the chain as printed. Names may count otherwise. Where no end group is shown, it is not given here.

The target in data set [1] is B2. Nature of the data set: co-IP.
Data set [2] deals with the molecule itself. Nature of the data set: self-association; western blot with or without β-ME, HEK293 cells. (Immunoblotting shows a protein as a band on a membrane.)
Data set [3] concerns the target B1. Briefly: anti-Flag IP, anti-Myc western blot.
The target in data set [4] is T1, Drp1 (endogenous, human cells and tissue) (human, UniProt O00429 1-736, limits assumed).
T1 construct: Endogenous protein in lysates; also called Dynamin-related protein 1
T1 sequence (O00429 whole entry): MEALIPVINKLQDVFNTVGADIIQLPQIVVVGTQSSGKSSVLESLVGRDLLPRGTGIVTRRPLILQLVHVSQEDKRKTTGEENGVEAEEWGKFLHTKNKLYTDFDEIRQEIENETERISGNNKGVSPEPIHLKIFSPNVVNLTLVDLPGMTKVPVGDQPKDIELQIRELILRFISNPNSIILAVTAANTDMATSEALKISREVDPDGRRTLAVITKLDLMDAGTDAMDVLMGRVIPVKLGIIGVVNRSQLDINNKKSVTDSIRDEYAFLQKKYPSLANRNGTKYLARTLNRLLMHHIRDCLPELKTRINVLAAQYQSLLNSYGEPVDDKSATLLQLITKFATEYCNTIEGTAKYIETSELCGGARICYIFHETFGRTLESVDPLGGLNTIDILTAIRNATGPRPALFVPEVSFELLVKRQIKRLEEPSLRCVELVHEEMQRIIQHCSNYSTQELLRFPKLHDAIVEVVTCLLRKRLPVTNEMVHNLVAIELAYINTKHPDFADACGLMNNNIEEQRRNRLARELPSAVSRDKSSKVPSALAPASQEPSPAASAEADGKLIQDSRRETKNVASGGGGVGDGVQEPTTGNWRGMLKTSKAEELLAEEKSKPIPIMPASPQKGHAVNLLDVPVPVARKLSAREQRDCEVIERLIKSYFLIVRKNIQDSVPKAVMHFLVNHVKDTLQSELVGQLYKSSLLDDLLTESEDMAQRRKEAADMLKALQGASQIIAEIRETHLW
Nature of the data set: IP of total lysates of transfected HEK293 cells.

Data set [5] deals with the molecule itself. Briefly: self-association; western blot under non-reducing conditions.
For data set [6], the target named is B2. Nature of the data set: biotin-DA1 (10 µM) with purified protein, streptavidin beads, western blot.
The target of data set [7] is T2, Drp1 (endogenous, mouse striatal cells and mouse striatum) (mouse, UniProt Q8K1M6 1-736, limits assumed).
T2 construct: Endogenous protein in lysates; also called Dynamin-related protein 1
T2 sequence (Q8K1M6 whole entry): as the sequence (O00429 whole entry) above, with I57V, Q72P, I134V, V528G, S548P, S563N, A571P, G573A, V577I, V581G counted along it
Briefly: biotin-DA1 with total lysates of HD striatal cells, streptavidin beads, western blot.

In data set [8] the target is T3, VDAC (OMM protein, endogenous in HD striatal cells) (mouse, UniProt Q3U6K8 2-283).
T3 construct: also called voltage-dependent anion channel
Described as above.

Data set [9] deals with ClpP (mitochondrial matrix protein, endogenous in HD striatal cells) (mouse, UniProt O88696 53-272). The description is as above.
ClpP (mitochondrial matrix protein, endogenous in HD striatal cells), sequence (O88696 53-272 limits assumed): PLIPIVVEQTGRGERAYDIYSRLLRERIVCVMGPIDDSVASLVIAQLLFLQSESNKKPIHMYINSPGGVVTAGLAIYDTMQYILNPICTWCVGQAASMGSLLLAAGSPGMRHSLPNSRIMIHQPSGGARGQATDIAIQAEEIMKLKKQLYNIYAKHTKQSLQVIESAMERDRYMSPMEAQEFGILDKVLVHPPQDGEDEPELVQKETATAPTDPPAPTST
In data set [10] the target is T4, GST-Drp1 recombinant protein (UniProt O00429-3 1-710, limits assumed).
T4 construct: Bought (Abnova); also called Dynamin-related protein 1; not shown: GST tag
T4 sequence (O00429 other isoform, or with tags, fused parts or gaps limits assumed): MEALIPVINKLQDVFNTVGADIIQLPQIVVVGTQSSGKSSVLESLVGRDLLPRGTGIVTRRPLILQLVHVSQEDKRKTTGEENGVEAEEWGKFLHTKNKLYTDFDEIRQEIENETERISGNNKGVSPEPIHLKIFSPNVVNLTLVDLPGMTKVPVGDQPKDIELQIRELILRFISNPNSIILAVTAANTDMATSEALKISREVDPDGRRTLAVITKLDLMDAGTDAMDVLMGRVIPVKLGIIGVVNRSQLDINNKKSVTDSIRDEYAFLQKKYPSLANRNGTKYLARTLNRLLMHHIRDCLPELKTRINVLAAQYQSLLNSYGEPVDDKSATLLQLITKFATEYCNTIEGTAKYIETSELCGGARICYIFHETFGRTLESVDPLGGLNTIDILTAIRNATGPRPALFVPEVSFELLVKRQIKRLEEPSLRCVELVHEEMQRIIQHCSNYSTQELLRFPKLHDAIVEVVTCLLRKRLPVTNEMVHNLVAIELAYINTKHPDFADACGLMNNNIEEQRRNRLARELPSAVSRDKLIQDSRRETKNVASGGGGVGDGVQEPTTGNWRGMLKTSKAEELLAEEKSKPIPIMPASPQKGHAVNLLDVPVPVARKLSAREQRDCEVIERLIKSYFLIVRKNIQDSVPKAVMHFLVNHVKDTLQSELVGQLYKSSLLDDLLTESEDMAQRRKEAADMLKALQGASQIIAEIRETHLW
Nature of the data set: biotin-DA1 with purified protein, streptavidin beads, western blot.

The target of data set [11] is B6. Nature of the data set: biotin-DA1 (10 µM) with total lysates of HD striatal cells, streptavidin beads, western blot.
For data set [12], the target named is T1, Drp1 (endogenous, human cells and …). Briefly: anti-Drp1 affinity purification and tandem mass spectrometry, neurons from HD patient iPS cells.

B1: the binding result in [1] is recorded as “binds”.
For B2, the binding result in data set [2] was “binds”.
With B3, the results for the binding result in [3], in data set [4] and in data set [2] were “binds”, “no binding” and “binds”, respectively.
With B4, the binding result in data set [4] and in [2] was “binds” throughout.
B5: the binding result in data set [3], in data set [4] and in [2] was “binds” in each case.
Consider B6, for which the binding result in data set [5] is “binds”.
Turning to YGRKKRRQRRRGGEDKRKT (also: biotin, position not given here, also called biotin-DA1) [Biotin-conjugated DA1], the binding result in data set [6] is given as “binds”; in data set [7], “no binding (tested: 10 µM)”; in data set [8], “no binding (tested: 10 µM)”; in data set [9], “no binding (tested: 10 µM)”; in data set [10] it was “no binding (tested: 10 µM)”; in [11], “binds”.
On to B7, for which the binding result in data set [5] and in data set [12] was “binds” throughout.
